Test results: article PMC3695512, “Recognition of two distinct elements in the RNA substrate by the RNA-binding domain of the T. thermophilus DEAD box helicase Hera”

Legend:
Hera_RBD [1] = molecular target: T1, Hera_RBD (Thermus thermophilus, UniProt O07897 424-510); experiment: NMR; CSP pattern similar to 21mer; Anisotropy: 50 mM Tris/HCl pH 7.5, 150 mM NaCl, 5 mM MgCl2 (Fig 2), 25 C, 50 nM RNA; EMSA: same Tris/NaCl, 12% glycerol, 25 C; NMR: 25 mM Bis-Tris/HCl pH 6.0, 50 mM NaCl, 10% D2O, 37 C; conditions: protein: recombinant; hairpin with 5' single strand
T1 sequence: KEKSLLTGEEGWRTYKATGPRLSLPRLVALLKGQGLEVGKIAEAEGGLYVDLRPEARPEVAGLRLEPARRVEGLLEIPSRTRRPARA

Hera_RBD [2] = molecular target: T1, Hera_RBD; experiment: fluorescence anisotropy; Anisotropy: 50 mM Tris/HCl pH 7.5, 150 mM NaCl, 5 mM MgCl2 (Fig 2), 25 C, 50 nM RNA; EMSA: same Tris/NaCl, 12% glycerol, 25 C; NMR: 25 mM Bis-Tris/HCl pH 6.0, 50 mM NaCl, 10% D2O, 37 C; conditions: protein: recombinant; label: 5'-fluorescein
Hera_RBD_dC-tail = molecular target: T2, Hera_RBD_dC-tail (Thermus thermophilus, UniProt O07897 424-491, del492-510); experiment: as above; conditions: protein: recombinant; label: 5'-fluorescein
T2 sequence: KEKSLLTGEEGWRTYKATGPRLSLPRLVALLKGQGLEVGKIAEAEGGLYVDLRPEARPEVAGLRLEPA

Hera_RBD [3] = molecular target: T1, Hera_RBD; experiment: NMR; pH 6.0, 50 mM NaCl, 37 C; Anisotropy: 50 mM Tris/HCl pH 7.5, 150 mM NaCl, 5 mM MgCl2 (Fig 2), 25 C, 50 nM RNA; EMSA: same Tris/NaCl, 12% glycerol, 25 C; NMR: 25 mM Bis-Tris/HCl pH 6.0, 50 mM NaCl, 10% D2O, 37 C; conditions: protein: recombinant
Hera_RBD [4] = molecular target: T1, Hera_RBD; experiment: ITC; 5 mM Mg2+; estimate, no initial baseline; Anisotropy: 50 mM Tris/HCl pH 7.5, 150 mM NaCl, 5 mM MgCl2 (Fig 2), 25 C, 50 nM RNA; EMSA: same Tris/NaCl, 12% glycerol, 25 C; NMR: 25 mM Bis-Tris/HCl pH 6.0, 50 mM NaCl, 10% D2O, 37 C; conditions: protein: recombinant; label: none (NMR, ITC); 5'-fluorescein (EMSA); hairpin with 5' single strand
GST-Hera_RBD = molecular target: T3, GST-Hera_RBD (Thermus thermophilus, UniProt O07897 424-510); experiment: EMSA; 6 uM RNA; 12% glycerol; Anisotropy: 50 mM Tris/HCl pH 7.5, 150 mM NaCl, 5 mM MgCl2 (Fig 2), 25 C, 50 nM RNA; EMSA: same Tris/NaCl, 12% glycerol, 25 C; NMR: 25 mM Bis-Tris/HCl pH 6.0, 50 mM NaCl, 10% D2O, 37 C; conditions: protein: recombinant; tags: N-terminal GST; label: none (NMR, ITC); 5'-fluorescein (EMSA); hairpin with 5' single strand
T3 sequence: T1 sequence

Hera_RBD [5] = molecular target: T1, Hera_RBD; experiment: NMR; Kd1, RBD core resonances (424-493); Anisotropy: 50 mM Tris/HCl pH 7.5, 150 mM NaCl, 5 mM MgCl2 (Fig 2), 25 C, 50 nM RNA; EMSA: same Tris/NaCl, 12% glycerol, 25 C; NMR: 25 mM Bis-Tris/HCl pH 6.0, 50 mM NaCl, 10% D2O, 37 C; conditions: protein: recombinant; hairpin with 5' single strand
Hera full-length = molecular target: T4, Hera full-length (Thermus thermophilus, UniProt O07897 1-510); experiment: fluorescence anisotropy; 1 uM Hera; complex forms instantaneously; Anisotropy: 50 mM Tris/HCl pH 7.5, 150 mM NaCl, 5 mM MgCl2 (Fig 2), 25 C, 50 nM RNA; EMSA: same Tris/NaCl, 12% glycerol, 25 C; NMR: 25 mM Bis-Tris/HCl pH 6.0, 50 mM NaCl, 10% D2O, 37 C; conditions: protein: recombinant; chain copies: 2; label: 3'-fluorescein on 9mer; 9 bp duplex (strand 1 nt 3-11) plus 3' hairpin; 5' overhang 2 nt
T4 sequence: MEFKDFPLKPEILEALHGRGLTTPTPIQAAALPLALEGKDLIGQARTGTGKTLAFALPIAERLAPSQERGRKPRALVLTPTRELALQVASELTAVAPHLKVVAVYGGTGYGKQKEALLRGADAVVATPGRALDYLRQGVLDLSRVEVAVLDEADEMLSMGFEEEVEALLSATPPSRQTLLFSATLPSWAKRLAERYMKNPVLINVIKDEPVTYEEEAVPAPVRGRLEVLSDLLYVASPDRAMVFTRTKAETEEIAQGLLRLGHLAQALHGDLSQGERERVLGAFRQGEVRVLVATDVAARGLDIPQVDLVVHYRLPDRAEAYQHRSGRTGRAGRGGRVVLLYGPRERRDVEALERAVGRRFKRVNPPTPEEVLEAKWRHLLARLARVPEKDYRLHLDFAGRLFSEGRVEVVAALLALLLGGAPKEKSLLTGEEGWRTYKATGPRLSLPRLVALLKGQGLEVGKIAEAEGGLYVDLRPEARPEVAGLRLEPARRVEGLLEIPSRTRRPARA

Hera_RBD [6] = molecular target: T1, Hera_RBD; experiment: NMR; core CSPs, none in C-tail; Anisotropy: 50 mM Tris/HCl pH 7.5, 150 mM NaCl, 5 mM MgCl2 (Fig 2), 25 C, 50 nM RNA; EMSA: same Tris/NaCl, 12% glycerol, 25 C; NMR: 25 mM Bis-Tris/HCl pH 6.0, 50 mM NaCl, 10% D2O, 37 C; conditions: protein: recombinant

GGGUUGGGCUAUUCGCCCAUU (structured_RNA) [21mer_modloop]
binding result (Hera_RBD [1]): binds

GGGC (ssRNA) [4mer]
Kd (Hera_RBD [2]): 11 µM
Kd (Hera_RBD_dC-tail): 8 µM

GGGUUGGGCUGUUCGCCCAUU (structured_RNA) [21mer]
Kd (Hera_RBD [3]; label: none (NMR, ITC), 5'-fluorescein (EMSA), hairpin with 5' single strand): ~6 µM
Kd (Hera_RBD [4]): ~40 µM
Kd (GST-Hera_RBD): ~23 µM

GUUGGGCUGUUCGCCCAUU (structured_RNA) [19mer]
Kd (Hera_RBD [3]; hairpin): ~75 µM

CACUUGGGCUGUUCGCCCAUU (structured_RNA) [21mer_mod]
Kd (Hera_RBD [5]): ~52.9 µM

B1: 32/9mer (mixed)
RNA 1: GCAGGUCCCAAGGGUUGGGCUGUUCGCCCAUU
RNA 2: UUGGGACCU
binding result (Hera full-length): binds

GGGCC (ssRNA) [5mer]
binding result (Hera_RBD [6]): binds
